Earlier results in article PMC4518304.

Molecular target: Asp26 (UniProt position 27, GAILVDFWAEW)
Assay: NMR
Conditions: reduced thioredoxin (per title of ref. 51)

## Thioredoxin (thioredoxin 1) (Escherichia coli)
  pKa: 7.3–7.5
